Changes are numbered by the printed parent chain.

In the assay the target is SARS-CoV-2 S ectodomain trimer, prefusion-stabilized, 2P variant (Wrapp et al., 2020) (SARS-CoV-2, Wuhan-Hu-1, UniProt P0DTC2, stabilised).

B1: G32M4 (antibody, V domains shown)
VH: QVQLVESGGGVVQPGRSLRLSCAASGFTFRSYAMHWVRQAPGKGLEWVAVISYDGSNKYYADSVKGRFTISRDNSKNTLYLQMNSLRAEDTAVYYCAKSYSGSYLAAFDIWGQGTMVTVSS
VL: EIVLTQSPGTLSLSPGERATLSCRASQIFSSSYLAWYQQKPGQAPRLLIYGASSRATGIPDRFSGSGSGTDFTLTISRLEPEDFAVYYCQQYGSSITFGQGTRLEIK
Consider B1, for which the binding result is listed as “binds”.

B2: C30A5 (antibody, V domains shown)
VH: B1 VH with R30S, S31T, M83L, Y100G, S103H, L105F, A107P, I110Y, M116L
VL: not shown
Regarding B2, the binding result was “binds”.

B3: C163E11 (antibody, V domains shown)
VH: QVQLVESGGGVVQPGRSLRLSCAASGFTFSIYAIHWVRQAPGKGLEWVAVVSYDGSNKYYADSVRGRFTISRDNSKNTLYLQMNSLRADDTAVYYCARDSAGGYSYLFDYWGQGTLVTVSS
VL: not shown
Regarding B3, the binding result is on record as “binds”.

B4: C163E6 (antibody, V domains shown)
VH: QVQLVESGGGVVQPGRSLRLSCAASGFTFNTYAVYWVRQAPGKGLEWVAVISYDGINKYYADSVKGRFTISRDNSKNTLYLQMNSLRPEDTAVYYCARVKSGSYKGCFDYWGQGTLVTVSS
VL: not shown
Regarding B4, the binding result was “binds”.

B5: C83B8 (antibody, V domains shown)
VH: QVQLVQSGAEVKKPGSSVKVSCKASGGTFSSYAISWVRQAPGQGLEWMGGIIPIFGTANYAQKFQGRVTITADESTSTAYMELSSLKSEDTAVYYCASTSYYDSSGYYLDYWGQGTLVTVSS
VL: EIVLTQSPATLSLSPGERATLSCRASQSVSSFLAWYQQKPGQAPRLLIYDASNRATGIPARFSGSGSGTDFTLTISSLEPEDFAVYYCQQRSNWPPKITFGQGTRLEIK
With B5, the binding result is “binds”.

B6: C83A10 (antibody, V domains shown)
VH: B5 VH with N59K, M81L, K87R, S98R, T99V, S100G, Y101P, L109Y
VL: B5 VL with F32Y, K97M, I98Y, R105K
Consider B6, for which the binding result is “binds”.

B7: C102A1 (antibody, V domains shown)
VH: B5 VH with K23E, V68L, Y80F, K87R, S98R, S100Y, Y108S, L109H
VL: B5 VL with V29L, S92T, K97R
As to B7, the binding result is given as “binds”.

B8: C163D1 (antibody, V domains shown)
VH: B5 VH with K87R, S98R, T99V, Y101G, Y108S, L109P
VL: B5 VL with F32Y, K97R, I98L, Q102G, R105K, L106V
As for B8, the binding result is “binds”.

B9: C12B2 (antibody, V domains shown)
VH: B5 VH with K87R, S98R, T99M, S100D
VL: B5 VL with S31N, Q89L, K97R, I98L, Q102G, R105K, L106V
In the case of B9, the binding result is listed as “binds”.

B10: C81E2 (antibody, V domains shown)
VH: not shown
VL: DIQMTQSPSSLSASVGDRVTITCRASQGISNYLAWYQQKPGKVPKLLIYAASTLQSGVPSRFSGSGSGTDFTLTISSLQPEDVATYYCQKYNSASPLTFGGGTKVEIK
In the case of B10, the binding result was “binds”.

B11: C81A10 (antibody, V domains shown)
VH: QVQLVQSGAEVKKPGSSVKVSCKASGGTFRSYAISWVRQAPGQGLEGMGGIIPIFGTTNYAQKFQGRVTITADESTSTAYMELSSLRSEDTAVYYCARSEWGDGYNQYYFDQWGQGALVTVSS
VL: DIQMTQSPSSLSAFVGDRVTITCRASQSISRYLNWYQQKPGKAPKVLIYAASSLQSGVPSRFSGSGSGTDFTLTISSLQPEDFATYYCQQSYSTLTFGGGTKVEIK
Consider B11, for which the binding result is recorded as “binds”.

B12: C81D9 (antibody, V domains shown)
VH: QVQLVESGGGVVQPGRSLRLSCAASGFTFSSYAMHWVRQAPGKGLEWVAVISYDGSNKYYADSVRGRFTISRDNSKNTLYLQMNSLRAEDTAVYYCARAWGGSYRGGLDYWGQGTLVTVSS
VL: DIQMTQSPSSLSASVGYRVTITCRASQSISSWLAWYQQKPGKAPKLLIYKASSLESGVPSRFSGSGSGTEFTLTISSLQPDDFATYYCQQYNSYWTFGQGTKVEIK
Regarding B12, the binding result is on record as “binds”.

B13: C41N6 (antibody, V domains shown)
VH: QVQLVESGGGVVQPGGSLRLSCAASGFTFSSYGMHWVRQAPGKGLEWVAFIRYDGSNNYYADSVKGRFTISRHNSKNTLYLQMNSLRAEDTAVYYCAKVTITIFGVVIYGMDVWGQGTTVTVSS
VL: not shown
Consider B13, for which the binding result is on record as “binds”.

B14: C882C12 (antibody, V domains shown)
VH: QVQLVQSGAEVKKPGASVKVSCKASGYTFTGYYMHWVRQAPGQGLEWMGWINPNSDVTNYAQKFQGWVTMTRDTSISTAYMELSRLRSDDTAVYYCAREIPSSGYYSGGLDYWGQGTLVTVSS
VL: QSALTQPRSVSGSPGQSVTISCTGTSSDVGGYNYVSWYQQYPGKAPKLMIYDVSKRPSGVPDRFSGSKSGNTASLTISGLQAEDEADYYCCSYAGTYTGVFGGGTKLTVL
Regarding B14, the binding result is on record as “binds”.

B15: G32R10 (antibody, V domains shown)
VH: EVQLLESGGGLVQPGGSLRLSCAASGFTFSRYAMSWVRQAPGKGLEWVSAISGSGGSTYYSDSVEGRFTISRDNSKNTLYVQMNSLRAEDTAVYYCAKDAGFIPLYYFDYWGQGTLVTVSS
VL: EIVMTQSPVTLSVSPGERATLSCRASQSVSSNLAWYQQKPGQAPRLLIYGASTRATGIPARFSGSGSGTEFTLIISSLQSEDFAVYNCQQYNNWPWTFGQGTKVEIK
As for B15, the binding result is on record as “binds”.

B16: G32A3 (antibody, V domains shown)
VH: QVQLVQSGAEVKRPGASVKVSCKASGYTFTSYGITWVRQAPGQGLEWMGWISAYNGNTNYAQKLQGRVTMTTDSSTSTAYMELRSLRSDDTAVYYCARTPNSVITMIVVVTQTLDYWGQGTLVTVSS
VL: QSALTQPASVSGSPGQSITISCTGTSSDVGGYNYVSWYQQHPGKAPKLMIYEVSNRPSGVSNRFSGSKSGNTASLTISGLQAEDEADYYCSSYTSSSTRVFGGGTKLTVL
Take B16: the binding result is “binds”.

B17: C107A2 (antibody, V domains shown)
VH: EVQLVESGGGLVQPGGSLRLSCAASEFTVNNNYMSWVRQAPGKGLEWVSIIYSGGSTYYADSVKGRFTISRDNSKNTLYLQMNSLRAEDTAVYYCARNHITMVRGVIKYQDYWGQGTLVTVSS
VL: not shown
With B17, the binding result is recorded as “binds”.

B18: G32M5 (antibody, V domains shown)
VH: EVQLLESGGGLVQPGGSLRLSCAASGFTFSSYAMSWVRQAPGKGLEWVSGISASGGSTYYADSVKGRFTISRDNSKNTLYLQMNSLRAEDTAVYYCAKDGGPYSKGPYHYYGMDVWGQGTTVTVSS
VL: QSVLTQPPSVSAAPGQKVTISCSGSSSNIGNNYVSWYQQLPGTAPKLLIYDNNKRPSGIPDRFSGSKSGTSATLGITGLQTGDEADYYCGTWDSSLSAYVFGTGTKVTVL
For the molecule B18, the binding result is reported as “binds”.

B19: C83B7 (antibody, V domains shown)
VH: QVQLVQSGAEVKKPGASVKVSCKASGYTFTSYYLHWVRQAPGQGLEWMGIINPSGGSTSYAQKFQGRVTMTRDTSTSTVYMELRSLRSEDTAVYYCARDSAPRDYDFWSGYYFGVNGKGSSMDVWGQGTTVTVSS
VL: QSALTQPPSASGSPGQSVTISCTGTSSDVGGYNYVSWYQQHPGKAPKLMIYEVSKRPSGVPDRFSGSKSGNTASLTVSGLQAEDEADYYCSSYAGSNNYVFGTGTKVTVL
B19: the binding result was “binds”.

B20: C30A11 (antibody, V domains shown)
VH: QVQLVQSGAEVKKPGASVKVSCKASGYTFTGYYIHWVRQAPGQGLEWMGWINPNSGVTNYAQKFQGWVTMTRDTSISTAYMELSRLKSDDTAVYYCAREMQQLEGYYYYAMDVWGQGTTVTVSS
VL: not shown
On to B20, for which the binding result is listed as “binds”.

B21: C12I9 (antibody, V domains shown)
VH: QVQLVQSGAEVKKPGASVKVSCKASGYTFTGYYMHWVRQDPGQGLEWMGWINPNSGVTNYAQKFQGWVTMTRDTSISTAYMELSRLKSDDTAVYYCAREVGAVAGTFYYGLDVWGQGTTVTVSS
VL: QSALTQPRSVSGSPEQSVAISCTGTSSDVGGNNYVSWYQQHPGKAPKLMIYDVSKRPSGVPDRFSGSKSGNTASLTISGLQAEDEADYYCCSYAGSYTFGVVFGGGTKLTVL
Consider B21, for which the binding result was “binds”.

B22: C12D2 (antibody, V domains shown)
VH: EVQLVESGGGLVQPGGSLRLSCAASGFTFSSYWMSWVRQAPGKGLEWVANIKQDGSEKYYVDSVKGRFIISRDNAKNSLYLQMNSLRAEDTAVYYCARDQRRFLEWLSYYYYMDVWGKGTTVTVSS
VL: not shown
For B22, the binding result is listed as “binds”.

B23: C15C9 (antibody, V domains shown)
VH: QVQLQQWGTGLLKPSETLSLTCAVYGGSFSGYYWTWIRQPPGKGLEWIGEINHSGTTTYNPSLKSRVTISVEKSENQFSLKLNSVTAADTAVYYCARGSRCSSASCLFYYFYYIDVWGKGTTVTVSS
VL: not shown
B23: the binding result is “binds”.

B24: C107A1 (antibody, V domains shown)
VH: QVQLVESGGGVVQPGRSLRLSCAASGFTFSSYGMHWVRQAPGKGLEWVAVISYDGSNKYYADSVKGRFTISRDNSKNTLYLQMNSLRAEDTAMYYCAKDGSGSYSWFDPWGQGTLVTVSS
VL: EIVMTQSPATLSVSPGERATLSCRASQSVSSNLAWYQQKPGQAPRLLIYGASTRATGIPARFGGSGSGTEFTLTISSLQSEDFAVYYCQQYNNGFTFGPGTKVDIK
In the case of B24, the binding result is “binds”.

B25: C15C7 (antibody, V domains shown)
VH: QVQLVESGGGVVQPGRSLRLSCAASGFTFSSYGMHWVRQAPGKGLEWVAVISYDGSNKYYADSVKGRFTISRDNSKNTLYLQMNSLRAEDTAVYYCAKDAYYYDSSGYYPRDYYYYYYYMDVWGKGTTVTVSS
VL: not shown
For the molecule B25, the binding result is given as “binds”.

B26: C81H7 (antibody, V domains shown)
VH: QVQLVESGGGVVQPGRSLRLSCAASGFTFSSYGMHWVRQAPGKGLEWVAVIWYDGSNKYYAESVKGRFTISRDNSKNTLYLQMNSLRAEDTAVYYCARPPSVVRHDAFDIWGQGTMVTVSS
VL: SYELTQPPSVSVSPGQTARITCSGDALPKKYAYWYQQKSGQAPVLVIYEDSKRPSGIPERFSGSSSGTMATLTISGAQVEDEADYYCYSTDSSGNHGVFGGGTKLTVL
Regarding B26, the binding result was “binds”.

These data come from article PMC8299219 (Cell, 2021).
